Experimental data from patent publication US20190271705A1 (UNIVERSITY OF WESTERN ONTARIO, published 2019).

Tests used:
EGF receptor (EGFR) [1] = biological target: T1, EGF receptor (EGFR) (UniProt P00533 25-1210, tyrosine-phosphorylated in the C-terminal tail (cells treated with EGF and pervanadate); sites not stated); assay: co-immunoprecipitation from HEK 293 cells
T1 construct: Endogenous receptor of HEK 293 cells; detected with an anti-EGFR rabbit polyclonal antibody; also called epidermal growth factor receptor

EGFR-pY978 peptide = biological target: T2, EGFR-pY978 peptide; assay: fluorescence polarization in solution; reference wild-type Fyn SH2 domain
T2 construct: Synthetic pTyr-containing peptide

EGF receptor (EGFR) [2] = biological target: T1, EGF receptor (EGFR); assay: co-immunoprecipitation from HEK 293 cells, anti-GFP and anti-EGFR antibodies

B1: T8V/C10A/K15L variant Src SH2 domain expressed as a GFP-fusion protein in HEK 293 cells (designed binder)
chain: DSIQAEEWYFGKITRRESERLLLNAENPRGTFLVRESETVKGAYALSVSDFDNAKGLNVKHYLIRKLDSGGFYITSRTQFNSLQQLVAYYSKHADGLCHRLTTVCPTSK
notes: domain: SH2 domain; also called TrM Src SH2 domain; 8V/10A/15L-substituted Src SH2 domain; not shown: GFP encoded by the pEGFPC2 vector (Clontech)
B1: binds (EGF receptor (EGFR) [1]).

B2: A8V/S10A/K15L variant Grb2 SH2 domain expressed as a GFP-fusion protein in HEK 293 cells (designed binder)
chain: MKPHPWFFGKIPRAKAEEMLSKQRHDGAFLIRESESVPGDFALSVKFGNDVQHFLVLRDGAGKYFLWVVKFNSLNELVDYHRSTSVSRNQQIFLRDIEQVPQQP
notes: also called TrM Grb2 SH2 domain; 8V/10A/15L-substituted Grb2 SH2 domain; not shown: GFP encoded by the pEGFPC2 vector (Clontech)
B2: binds (EGF receptor (EGFR) [1]).

B3: T8V/S10A/K15L variant Fyn SH2 domain (designed binder)
chain: MKIEEHHHHHHSSGRENLYFQGGAAQPAAPVDSIQAEEWYFGKLGRKDAERQLLSFGNPRGTFLIRESETVKGAYALSIRDWDDMKGDHVKHYLIRKLDNGGYYITTRAQFETLQQLVQHYSERAAGLSSRLVVPSHKGAAA
For B3, the “fold affinity increase (Kd[wild-type] divided by Kd[variant])” value (EGFR-pY978 peptide) was greater than 1000 fold.

B4: wild-type Fyn SH2 domain expressed as a GFP-fusion protein in HEK 293 cells (other, human, UniProt P06241 139-249, looked up)
chain: APVDSIQAEEWYFGKLGRKDAERQLLSFGNPRGTFLIRESETTKGAYSLSIRDWDDMKGDHVKHYKIRKLDNGGYYITTRAQFETLQQLVQHYSERAAGLCCRLVVPCHKG
notes: domain: SH2 domain; also called Wt Fyn SH2 domain; Wt; not shown: GFP encoded by the pEGFPC2 vector (Clontech)
B4: no binding (EGF receptor (EGFR) [2]).
